Publication PMC11686404

Molecular target: native BnFMO, flavin monooxygenase from Bacillus niacini (Bacillus niacini)
Assay: cryo-EM structure

stoichiometry N: 3
Substance: native BnFMO, flavin monooxygenase from Bacillus niacini (enzyme)
